The record followed here is the RNAGym collection of RNA variant scans (doi:10.1093/molbev/msab373).

B1: Azoarcus group I ribozyme (parent)
chain: GUGCCUUGCGCCGGGAAACCACGCAAGGGAUGGUGUCAAAUUCGGCGAAACCUAAGCGCCCGCCCGGGCGUAUGGCAACGCCGAGCCAAGCUUCGGCGCCUGCGCCGAUGAAGGUGUAGAGACUAGACGGCACCCACCUAAGGCAAACGCUAUGGUGAAGGCAUAGUCCAGGGAGUGGCGAAAGUCACACAAACCGG

Variants of B1 are the subject of the data set. Briefly: reverse-splicing fitness (ratio to wild type); higher = more active; in vitro selection; Mg2+ level not given. In short, it runs like this:
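An in vitro group I ribozyme library with randomized positions was T7-transcribed and gel-purified. In triplicate, 10 pmol RNA in EPPS pH 7.5 was reacted with 50 pmoles of a 30-nt RNA substrate for 1 h at 37 °C across several added MgCl2 levels (1–48 mM), then stopped with EDTA. Products were reverse transcribed from a substrate-complementary primer, PCR-amplified and sequenced (HiSeq 4000). Fitness is a variant's read proportion after selection over that before, normalised to wild type.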
Consider GUGCCUUGCGCCGGGAAACCACGCAAGGGAUGGUGUCAAAUUCGGCGAAACCUAAGCGCCCGCCCGGGCGUAUGGCAACGCUGAGCCAAGCUUCGGCGCCUGCGCCGAUGGAGGUGUAGCGACUAGACGGCACCCACCUAAGGCGAACGUUAUGGUGAAGGCAUAGUCGAGGGAGUGGCGAAAGUCACACAAACCGG [C82U A111G A120C A145G C150U C169G], for which the reverse-splicing fitness was 0.0102.

With GUGCCUUGCGCCGGGAAACCACGCAAGGGAUGGUGUCAAAUUCGGCGAAACCUAAGCGCCCGCCCGGGCGUAUGGCAACGCUGAGCCAAGCUUCGGCGCCUGCGCCGAUGGAGGUGUAGCGACUAGACGGCACCCACCUAAGGCGAACGUUAUGGUGAAGGCAUAGUCAAGGGAGUGGCGAAAGUCACACAAACCGG [C82U A111G A120C A145G C150U C169A], the reverse-splicing fitness came out at 0.00939.

In the case of GUGCCUUGCGCCGGGAAACCACGCAAGGGAUGGUGUCAAAUUCGGCGAAACCUAAGCGCCCGCCCGGGCGUAUGGCAACGCUGAGCCAAGCUUCGGCGCCUGCGCCGAUGGAGGUGUAGCGACUAGACGGCACCCACCUAAGGCGAACGUUAUGGUGAAGGCAUAGUCGAGGGAGCGGCGAAAGUCACACAAACCGG [C82U A111G A120C A145G C150U C169G U176C], the reverse-splicing fitness was determined as 0.0188.

GUGCCUUGCGCCGGGAAACCACGCAAGGGAUGGUGUCAAAUUCGGCGAAACCUAAGCGCCCGCCCGGGCGUAUGGCAACGCUGAGCCAAGCUUCGGCGCCUGCGCCGAUGGAGGUGUAGCGACUAGACGGCACCCACCUAAGGCGAACGUUAUGGUGAAGGCAUAGUCGAGGGAGAGGCGAAAGUCACACAAACCGG [C82U A111G A120C A145G C150U C169G U176A]: the reverse-splicing fitness turned out to be 0.0191.

Regarding GUGCCUUGCGCCGGGAAACCACGCAAGGGAUGGUGUCAAAUUCGGCGAAACCUAAGCGCCCGCCCGGGCGUAUGGCAACGCUGAGCCAAGCUUCGGCGCCUGCGCCGAUGGAGGUGUAGCGACUAGACGGCACCCACCUAAGGCGAACGUUAUGGUGAAGGCAUAGUCGAGGGAGGGGCGAAAGUCACACAAACCGG [C82U A111G A120C A145G C150U C169G U176G], the reverse-splicing fitness came out at 0.00507.

As to GUGCCUUGCGCCGGGAAACCACGCAAGGGAUGGUGUCAAAUUCGGCGAAACCUAAGCGCCCGCCCGGGCGUAUGGCAACGCUGAGCCAAGCUUCGGCGCCUGCGCCGAUGGAGGUGUAGCGACUAGACGGCACCCACCUAAGGCGAACGUUAUGGUGAAGGCAUAGUCAAGGGAGCGGCGAAAGUCACACAAACCGG [C82U A111G A120C A145G C150U C169A U176C], the reverse-splicing fitness was 0.0152.

In the case of GUGCCUUGCGCCGGGAAACCACGCAAGGGAUGGUGUCAAAUUCGGCGAAACCUAAGCGCCCGCCCGGGCGUAUGGCAACGCUGAGCCAAGCUUCGGCGCCUGCGCCGAUGGAGGUGUAGCGACUAGACGGCACCCACCUAAGGCGAACGUUAUGGUGAAGGCAUAGUCAAGGGAGGGGCGAAAGUCACACAAACCGG [C82U A111G A120C A145G C150U C169A U176G], the reverse-splicing fitness was 0.00429.

GUGCCUUGCGCCGGGAAACCACGCAAGGGAUGGUGUCAAAUUCGGCGAAACCUAAGCGCCCGCCCGGGCGUAUGGCAACGCUGAGCCAAGCUUCGGCGCCUGCGCCGAUGGAGGUGUAGCGACUAGACGGCACCCACCUAAGGCGAACGUUAUGGUGAAGGCAUAGUCAAGGGAGAGGCGAAAGUCACACAAACCGG [C82U A111G A120C A145G C150U C169A U176A]: the reverse-splicing fitness stood at 0.0135.

Take GUGCCUUGCGCCGGGAAACCACGCAAGGGAUGGUGUCAAAUUCGGCGAAACCUAAGCGCCCGCCCGGGCGUAUGGCAACGCUGAGCCAAGCUUCGGCGCCUGCGCCGAUGGAGGUGUAGCGACUAGACGGCACCCACCUAAGGCGAACGGUAUGGUGAAGGCAUAGUCUAGGGAGCGGCGAAAGUCACACAAACCGG [C82U A111G A120C A145G C150G C169U U176C]: the reverse-splicing fitness came out at 0.0109.

As to GUGCCUUGCGCCGGGAAACCACGCAAGGGAUGGUGUCAAAUUCGGCGAAACCUAAGCGCCCGCCCGGGCGUAUGGCAACGCUGAGCCAAGCUUCGGCGCCUGCGCCGAUGGAGGUGUAGCGACUAGACGGCACCCACCUAAGGCGAACGGUAUGGUGAAGGCAUAGUCUAGGGAGAGGCGAAAGUCACACAAACCGG [C82U A111G A120C A145G C150G C169U U176A], the reverse-splicing fitness was found to be 0.00704.

Take GUGCCUUGCGCCGGGAAACCACGCAAGGGAUGGUGUCAAAUUCGGCGAAACCUAAGCGCCCGCCCGGGCGUAUGGCAACGCUGAGCCAAGCUUCGGCGCCUGCGCCGAUGGAGGUGUAGCGACUAGACGGCACCCACCUAAGGCGAACGGUAUGGUGAAGGCAUAGUCUAGGGAGGGGCGAAAGUCACACAAACCGG [C82U A111G A120C A145G C150G C169U U176G]: the reverse-splicing fitness stood at 0.0053.

In the case of GUGCCUUGCGCCGGGAAACCACGCAAGGGAUGGUGUCAAAUUCGGCGAAACCUAAGCGCCCGCCCGGGCGUAUGGCAACGCUGAGCCAAGCUUCGGCGCCUGCGCCGAUGGAGGUGUAGCGACUAGACGGCACCCACCUAAGGCGAACGGUAUGGUGAAGGCAUAGUCCAGGGAGCGGCGAAAGUCACACAAACCGG [C82U A111G A120C A145G C150G U176C], the reverse-splicing fitness is 0.00793.

On to GUGCCUUGCGCCGGGAAACCACGCAAGGGAUGGUGUCAAAUUCGGCGAAACCUAAGCGCCCGCCCGGGCGUAUGGCAACGCUGAGCCAAGCUUCGGCGCCUGCGCCGAUGGAGGUGUAGCGACUAGACGGCACCCACCUAAGGCGAACGGUAUGGUGAAGGCAUAGUCCAGGGAGGGGCGAAAGUCACACAAACCGG [C82U A111G A120C A145G C150G U176G], for which the reverse-splicing fitness worked out at 0.0033.

For the variant GUGCCUUGCGCCGGGAAACCACGCAAGGGAUGGUGUCAAAUUCGGCGAAACCUAAGCGCCCGCCCGGGCGUAUGGCAACGCUGAGCCAAGCUUCGGCGCCUGCGCCGAUGGAGGUGUAGCGACUAGACGGCACCCACCUAAGGCGAACGGUAUGGUGAAGGCAUAGUCCAGGGAGAGGCGAAAGUCACACAAACCGG [C82U A111G A120C A145G C150G U176A], the reverse-splicing fitness came to 0.00545.

With GUGCCUUGCGCCGGGAAACCACGCAAGGGAUGGUGUCAAAUUCGGCGAAACCUAAGCGCCCGCCCGGGCGUAUGGCAACGCUGAGCCAAGCUUCGGCGCCUGCGCCGAUGGAGGUGUAGCGACUAGACGGCACCCACCUAAGGCGAACGUUAUGGUGAAGGCAUAGUCCAGGGAGUGGCGAAAGUCACACAAACCGG [C82U A111G A120C A145G C150U], the reverse-splicing fitness is 0.042.
